The experiment has as its target T1, FRB-24-mCherry-Wp3-TwinStrep.
T1 construct: also called Negative control (mCherry); FRB-mCherry fusion
The experiment in a line: OECT transfer curves (ID against VG), PEDOT:PSS channel.

B1: GFPnanobody-8aa-SpyCatcher-3C cleavage site-His10 (VHH)
VHH: QVQLVESGGALVQPGGSLRLSCAASGFPVNRYSMRWYRQAPGKEREWVAGMSSAGDRSSYEDSVKGRFTISRDDARNTVYLQMNSLKPEDTAVYYCNVNVGFEYWGQGTQVTVSS
notes: also called anti-GFP nanobody; GFP nanobody-SpyCatcher
Consider B1, for which the binding result is given as “no binding (tested: 2 x 10^-8 M)”.

The values are drawn from patent US20240280570A1 (KING ABDULLAH UNIVERSITY OF SCIENCE AND TECHNOLOGY, published 2024).
